± gives the uncertainty stated by the source.
B1: Storkhead-box protein 2, residues 64 to 141; numbered along this chain, Q9P2F5 (parent)
chain: SPISQSQFIPLGEILCLAISAMNSARKPVTQEALMEHLTTCFPGVPTPSQEILRHTLNTLVRERKIYPTPDGYFIVTP

Variants of: B1
Test: abundance fitness (aPCA) (normalised: wild type 0, dead -1); higher = more abundant; growth selection in yeast, the domain comes from the species named
Conditions: Homo sapiens

Variant	abundance fitness
SPISQSQFIPLGEILCLAISDMNSARKPVTQEALMEHLTTCFPGVPTPSQEILRHTLNTLVRERKIYPTPDGYFIVTP [A21D]	0.002 ± 0.079
SPISQSQFIPLGEILCLAISKMNSARKPVTQEALMEHLTTCFPGVPTPSQEILRHTLNTLVRERKIYPTPDGYFIVTP [A21K]	0.051 ± 0.046
SPISQSQFIPLGEILCLAISQMNSARKPVTQEALMEHLTTCFPGVPTPSQEILRHTLNTLVRERKIYPTPDGYFIVTP [A21Q]	0.002 ± 0.073
SPISQSQFIPLGEILCLAISSMNSARKPVTQEALMEHLTTCFPGVPTPSQEILRHTLNTLVRERKIYPTPDGYFIVTP [A21S]	0.062 ± 0.052
SPISQSQFIPLGEILCLAISIMNSARKPVTQEALMEHLTTCFPGVPTPSQEILRHTLNTLVRERKIYPTPDGYFIVTP [A21I]	-0.24 ± 0.18
SPISQSQFIPLGEILCLAISCMNSARKPVTQEALMEHLTTCFPGVPTPSQEILRHTLNTLVRERKIYPTPDGYFIVTP [A21C]	-0.137 ± 0.07
SPISQSQFIPLGEILCLAISPMNSARKPVTQEALMEHLTTCFPGVPTPSQEILRHTLNTLVRERKIYPTPDGYFIVTP [A21P]	-0.774 ± 0.072
SPISQSQFIPLGEILCLAISLMNSARKPVTQEALMEHLTTCFPGVPTPSQEILRHTLNTLVRERKIYPTPDGYFIVTP [A21L]	-0.305 ± 0.051
SPISQSQFIPLGEILCLAISWMNSARKPVTQEALMEHLTTCFPGVPTPSQEILRHTLNTLVRERKIYPTPDGYFIVTP [A21W]	-0.244 ± 0.091
SPISQSQFIPLGEILCLAISHMNSARKPVTQEALMEHLTTCFPGVPTPSQEILRHTLNTLVRERKIYPTPDGYFIVTP [A21H]	-0.181 ± 0.17
SPISQSQFIPLGEILCLAISGMNSARKPVTQEALMEHLTTCFPGVPTPSQEILRHTLNTLVRERKIYPTPDGYFIVTP [A21G]	-0.063 ± 0.047
SPISQSQFIPLGEILCLAISTMNSARKPVTQEALMEHLTTCFPGVPTPSQEILRHTLNTLVRERKIYPTPDGYFIVTP [A21T]	-0.086 ± 0.089
SPISQSQFIPLGEILCLAISVMNSARKPVTQEALMEHLTTCFPGVPTPSQEILRHTLNTLVRERKIYPTPDGYFIVTP [A21V]	-0.167 ± 0.048
SPISQSQFIPLGEILCLAISMMNSARKPVTQEALMEHLTTCFPGVPTPSQEILRHTLNTLVRERKIYPTPDGYFIVTP [A21M]	-0.235 ± 0.079
SPISQSQFIPLGEILCLAISRMNSARKPVTQEALMEHLTTCFPGVPTPSQEILRHTLNTLVRERKIYPTPDGYFIVTP [A21R]	-0.019 ± 0.051
SPISQSQFIPLGEILCLAISYMNSARKPVTQEALMEHLTTCFPGVPTPSQEILRHTLNTLVRERKIYPTPDGYFIVTP [A21Y]	0.056 ± 0.097
SPISQSQFIPLGEILCLAISNMNSARKPVTQEALMEHLTTCFPGVPTPSQEILRHTLNTLVRERKIYPTPDGYFIVTP [A21N]	0.235 ± 0.16
SPISQSQFIPLGEILCLAISFMNSARKPVTQEALMEHLTTCFPGVPTPSQEILRHTLNTLVRERKIYPTPDGYFIVTP [A21F]	-0.212 ± 0.091
SPISQSQFIPLGEILCLAISAKNSARKPVTQEALMEHLTTCFPGVPTPSQEILRHTLNTLVRERKIYPTPDGYFIVTP [M22K]	-0.403 ± 0.064
SPISQSQFIPLGEILCLAISAENSARKPVTQEALMEHLTTCFPGVPTPSQEILRHTLNTLVRERKIYPTPDGYFIVTP [M22E]	-0.719 ± 0.25
SPISQSQFIPLGEILCLAISAPNSARKPVTQEALMEHLTTCFPGVPTPSQEILRHTLNTLVRERKIYPTPDGYFIVTP [M22P]	-0.739 ± 0.06
SPISQSQFIPLGEILCLAISARNSARKPVTQEALMEHLTTCFPGVPTPSQEILRHTLNTLVRERKIYPTPDGYFIVTP [M22R]	-0.205 ± 0.043
SPISQSQFIPLGEILCLAISASNSARKPVTQEALMEHLTTCFPGVPTPSQEILRHTLNTLVRERKIYPTPDGYFIVTP [M22S]	-0.306 ± 0.04
SPISQSQFIPLGEILCLAISANNSARKPVTQEALMEHLTTCFPGVPTPSQEILRHTLNTLVRERKIYPTPDGYFIVTP [M22N]	-0.334 ± 0.12

Variant	abundance fitness
SPISQSQFIPLGEILCLAISAQNSARKPVTQEALMEHLTTCFPGVPTPSQEILRHTLNTLVRERKIYPTPDGYFIVTP [M22Q]	-0.226 ± 0.066
SPISQSQFIPLGEILCLAISACNSARKPVTQEALMEHLTTCFPGVPTPSQEILRHTLNTLVRERKIYPTPDGYFIVTP [M22C]	-0.114 ± 0.08
SPISQSQFIPLGEILCLAISADNSARKPVTQEALMEHLTTCFPGVPTPSQEILRHTLNTLVRERKIYPTPDGYFIVTP [M22D]	-0.515 ± 0.29
SPISQSQFIPLGEILCLAISAINSARKPVTQEALMEHLTTCFPGVPTPSQEILRHTLNTLVRERKIYPTPDGYFIVTP [M22I]	-0.128 ± 0.097
SPISQSQFIPLGEILCLAISAANSARKPVTQEALMEHLTTCFPGVPTPSQEILRHTLNTLVRERKIYPTPDGYFIVTP [M22A]	-0.234 ± 0.074
SPISQSQFIPLGEILCLAISAFNSARKPVTQEALMEHLTTCFPGVPTPSQEILRHTLNTLVRERKIYPTPDGYFIVTP [M22F]	-0.201 ± 0.075
SPISQSQFIPLGEILCLAISATNSARKPVTQEALMEHLTTCFPGVPTPSQEILRHTLNTLVRERKIYPTPDGYFIVTP [M22T]	-0.616 ± 0.067
SPISQSQFIPLGEILCLAISAGNSARKPVTQEALMEHLTTCFPGVPTPSQEILRHTLNTLVRERKIYPTPDGYFIVTP [M22G]	-0.257 ± 0.036
SPISQSQFIPLGEILCLAISALNSARKPVTQEALMEHLTTCFPGVPTPSQEILRHTLNTLVRERKIYPTPDGYFIVTP [M22L]	0.015 ± 0.036
SPISQSQFIPLGEILCLAISAHNSARKPVTQEALMEHLTTCFPGVPTPSQEILRHTLNTLVRERKIYPTPDGYFIVTP [M22H]	-0.226 ± 0.078
SPISQSQFIPLGEILCLAWSAMNSARKPVTQEALMEHLTTCFPGVPTPSQEILRHTLNTLVRERKIYPTPDGYFIVTP [I19W]	-0.825 ± 0.06
SPISQSQFIPLGEILCLAFSAMNSARKPVTQEALMEHLTTCFPGVPTPSQEILRHTLNTLVRERKIYPTPDGYFIVTP [I19F]	-0.317 ± 0.15
SPISQSQFIPLGEILCLAPSAMNSARKPVTQEALMEHLTTCFPGVPTPSQEILRHTLNTLVRERKIYPTPDGYFIVTP [I19P]	-0.948 ± 0.12
SPISQSQFIPLGEILCLAESAMNSARKPVTQEALMEHLTTCFPGVPTPSQEILRHTLNTLVRERKIYPTPDGYFIVTP [I19E]	-1 ± 0.15
SPISQSQFIPLGEILCLACSAMNSARKPVTQEALMEHLTTCFPGVPTPSQEILRHTLNTLVRERKIYPTPDGYFIVTP [I19C]	-0.21 ± 0.067
SPISQSQFIPLGEILCLALSAMNSARKPVTQEALMEHLTTCFPGVPTPSQEILRHTLNTLVRERKIYPTPDGYFIVTP [I19L]	-0.23 ± 0.047
SPISQSQFIPLGEILCLAHSAMNSARKPVTQEALMEHLTTCFPGVPTPSQEILRHTLNTLVRERKIYPTPDGYFIVTP [I19H]	-0.852 ± 0.44
SPISQSQFIPLGEILCLARSAMNSARKPVTQEALMEHLTTCFPGVPTPSQEILRHTLNTLVRERKIYPTPDGYFIVTP [I19R]	-1.01 ± 0.088
SPISQSQFIPLGEILCLAYSAMNSARKPVTQEALMEHLTTCFPGVPTPSQEILRHTLNTLVRERKIYPTPDGYFIVTP [I19Y]	-1.26 ± 0.33
SPISQSQFIPLGEILCLASSAMNSARKPVTQEALMEHLTTCFPGVPTPSQEILRHTLNTLVRERKIYPTPDGYFIVTP [I19S]	-0.823 ± 0.062
SPISQSQFIPLGEILCLAASAMNSARKPVTQEALMEHLTTCFPGVPTPSQEILRHTLNTLVRERKIYPTPDGYFIVTP [I19A]	-0.341 ± 0.055
SPISQSQFIPLGEILCLAQSAMNSARKPVTQEALMEHLTTCFPGVPTPSQEILRHTLNTLVRERKIYPTPDGYFIVTP [I19Q]	-1.15 ± 0.21
SPISQSQFIPLGEILCLATSAMNSARKPVTQEALMEHLTTCFPGVPTPSQEILRHTLNTLVRERKIYPTPDGYFIVTP [I19T]	-0.224 ± 0.06
SPISQSQFIPLGEILCLAGSAMNSARKPVTQEALMEHLTTCFPGVPTPSQEILRHTLNTLVRERKIYPTPDGYFIVTP [I19G]	-1.07 ± 0.12

Variant	abundance fitness
SPISQSQFIPLGEILCLAVSAMNSARKPVTQEALMEHLTTCFPGVPTPSQEILRHTLNTLVRERKIYPTPDGYFIVTP [I19V]	-0.154 ± 0.051
SPISQSQFIPLGEILCLTISAMNSARKPVTQEALMEHLTTCFPGVPTPSQEILRHTLNTLVRERKIYPTPDGYFIVTP [A18T]	-0.099 ± 0.081
SPISQSQFIPLGEILCLVISAMNSARKPVTQEALMEHLTTCFPGVPTPSQEILRHTLNTLVRERKIYPTPDGYFIVTP [A18V]	-0.163 ± 0.062
SPISQSQFIPLGEILCLWISAMNSARKPVTQEALMEHLTTCFPGVPTPSQEILRHTLNTLVRERKIYPTPDGYFIVTP [A18W]	-0.496 ± 0.062
SPISQSQFIPLGEILCLSISAMNSARKPVTQEALMEHLTTCFPGVPTPSQEILRHTLNTLVRERKIYPTPDGYFIVTP [A18S]	-0.197 ± 0.066
SPISQSQFIPLGEILCLAIKAMNSARKPVTQEALMEHLTTCFPGVPTPSQEILRHTLNTLVRERKIYPTPDGYFIVTP [S20K]	0.018 ± 0.075
SPISQSQFIPLGEILCLAILAMNSARKPVTQEALMEHLTTCFPGVPTPSQEILRHTLNTLVRERKIYPTPDGYFIVTP [S20L]	-0.172 ± 0.024
SPISQSQFIPLGEILCLAIGAMNSARKPVTQEALMEHLTTCFPGVPTPSQEILRHTLNTLVRERKIYPTPDGYFIVTP [S20G]	-0.039 ± 0.037
SPISQSQFIPLGEILCLAIRAMNSARKPVTQEALMEHLTTCFPGVPTPSQEILRHTLNTLVRERKIYPTPDGYFIVTP [S20R]	-0.025 ± 0.04
SPISQSQFIPLGEILCLAIPAMNSARKPVTQEALMEHLTTCFPGVPTPSQEILRHTLNTLVRERKIYPTPDGYFIVTP [S20P]	-0.405 ± 0.074
SPISQSQFIPLGEILCLAIDAMNSARKPVTQEALMEHLTTCFPGVPTPSQEILRHTLNTLVRERKIYPTPDGYFIVTP [S20D]	-0.116 ± 0.17
SPISQSQFIPLGEILCLAIVAMNSARKPVTQEALMEHLTTCFPGVPTPSQEILRHTLNTLVRERKIYPTPDGYFIVTP [S20V]	-0.171 ± 0.044
SPISQSQFIPLGEILCLAIHAMNSARKPVTQEALMEHLTTCFPGVPTPSQEILRHTLNTLVRERKIYPTPDGYFIVTP [S20H]	-0.219 ± 0.12
SPISQSQFIPLGEILCLAIIAMNSARKPVTQEALMEHLTTCFPGVPTPSQEILRHTLNTLVRERKIYPTPDGYFIVTP [S20I]	-0.359 ± 0.099
SPISQSQFIPLGEILCLAIWAMNSARKPVTQEALMEHLTTCFPGVPTPSQEILRHTLNTLVRERKIYPTPDGYFIVTP [S20W]	-0.419 ± 0.053
SPISQSQFIPLGEILCLAIEAMNSARKPVTQEALMEHLTTCFPGVPTPSQEILRHTLNTLVRERKIYPTPDGYFIVTP [S20E]	-0.022 ± 0.069
SPISQSQFIPLGEILCLAINAMNSARKPVTQEALMEHLTTCFPGVPTPSQEILRHTLNTLVRERKIYPTPDGYFIVTP [S20N]	0.076 ± 0.16
SPISQSQFIPLGEILCLAITAMNSARKPVTQEALMEHLTTCFPGVPTPSQEILRHTLNTLVRERKIYPTPDGYFIVTP [S20T]	-0.006 ± 0.06
SPISQSQFIPLGEILCLAIQAMNSARKPVTQEALMEHLTTCFPGVPTPSQEILRHTLNTLVRERKIYPTPDGYFIVTP [S20Q]	0.019 ± 0.087
SPISQSQFIPLGEILCLAIAAMNSARKPVTQEALMEHLTTCFPGVPTPSQEILRHTLNTLVRERKIYPTPDGYFIVTP [S20A]	-0.104 ± 0.039
SPISQSQFIPLGEILCLAIMAMNSARKPVTQEALMEHLTTCFPGVPTPSQEILRHTLNTLVRERKIYPTPDGYFIVTP [S20M]	-0.115 ± 0.067
SPISQSQFIPLGEILCLAIYAMNSARKPVTQEALMEHLTTCFPGVPTPSQEILRHTLNTLVRERKIYPTPDGYFIVTP [S20Y]	-0.181 ± 0.096

Reference: the Human Domainome abundance scans (Beltran et al. 2025)
